Measurements published in patent US20120301897A1, “ACETAMINOPHEN-PROTEIN ADDUCT ASSAY DEVICE AND METHOD” (BOARD OF TRUSTEES OF THE UNIVERSITY OF ARKANSAS, priority 2008, published 2012).

Legend:
[1] = human, in vivo
Method: Serum samples were analyzed for acetaminophen-protein adducts (as measured by acetaminophen-cysteine or APAP-CYS) using a high-performance liquid chromatography with electrochemical detection (HPLC-EC) method. All serum samples were dialyzed, treated with protease, and then precipitated with trichloracetic acid.
The severity of liver injury was stratified by the highest recorded value for AST concentration.
The subgroups were based on the severity of toxicity defined as the highest recorded value for AST concentration for each patient over the period of hospitalization.

[2] = under overdose conditions; cited from earlier work

Row | Compound | mean (±SD) half-life of adducts in serum [1] | reported elimination half-life [2]
1 | 3-(cystein-S-yl) APAP (3-Cys-A)-protein adducts [APAP-protein adducts] | 35.3 ± 7.2 h | –
2 | CC(=O)Nc1ccc(O)cc1 [APAP, Acetaminophen] | – | about 18 hours
